Experimental data as given in patent publication US20240317847A1 (Bayer, published 2024).
Changes are numbered by the printed parent chain.

T1: human IL-11 (human, UniProt P20809 22-199)
T1 sequence: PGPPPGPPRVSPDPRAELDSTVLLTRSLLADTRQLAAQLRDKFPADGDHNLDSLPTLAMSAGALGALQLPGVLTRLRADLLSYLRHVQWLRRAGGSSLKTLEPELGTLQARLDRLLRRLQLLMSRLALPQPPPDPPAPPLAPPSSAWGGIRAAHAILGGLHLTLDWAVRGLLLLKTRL

T2: murine IL-11 (mouse, UniProt P47873 22-199)
T2 sequence: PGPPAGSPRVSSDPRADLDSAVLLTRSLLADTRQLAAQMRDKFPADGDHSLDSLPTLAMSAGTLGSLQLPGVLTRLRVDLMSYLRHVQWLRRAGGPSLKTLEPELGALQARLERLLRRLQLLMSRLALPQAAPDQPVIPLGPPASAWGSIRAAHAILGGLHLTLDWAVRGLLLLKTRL

T3: human IL-11 (human, UniProt P20809 22-199)
T3 construct: bought from Invigate; also called hIL-11; hIL11
T3 sequence: T1 sequence

T4: murine IL-11 (mouse, UniProt P47873 22-199)
T4 construct: bought from Invigate; also called mIL-11; mIL11
T4 sequence: T2 sequence

T5: human IL2Ra (human, UniProt P01589 22-240, limits assumed)
T5 construct: bought protein, coated on the plate; also called hIL2RA; IL-2 receptor alpha
T5 sequence (looked up): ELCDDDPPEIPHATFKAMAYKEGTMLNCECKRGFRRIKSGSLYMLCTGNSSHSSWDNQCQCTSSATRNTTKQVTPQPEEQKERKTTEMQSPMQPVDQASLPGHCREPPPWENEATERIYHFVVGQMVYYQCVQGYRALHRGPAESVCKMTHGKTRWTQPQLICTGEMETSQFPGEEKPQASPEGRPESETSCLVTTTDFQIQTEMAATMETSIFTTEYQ

B1: TPP-26329 (antibody, V domains shown)
VH: EVQLLESGGGLVQPGGSLRLSCAASGFTFSSWGMHWVRQAPGKGLEWVSVISYDGSYKYYADSVKGRFTISRDNSKNTLYLQMNSLRAEDTAVYYCAAGVPDYWGQGTLVTVSS
VL: QSVLTQPPSASGTPGQRVTISCTGSSSNIGAGYDVHWYQQLPGTAPKLLIYSNNERPSGVPDRFSGSKSGTSASLAISGLRSEDEADYYCAAWDDSLNGPVFGGGTKLTVL
B2: TPP-26327 (antibody, V domains shown)
VH: B1 VH with W32Y, S52R
VL: B1 VL
B3: TPP-26325 (antibody, V domains shown)
VH: B1 VH with S31W, W32Y
VL: B1 VL
B4: TPP-26333 (antibody, V domains shown)
VH: B1 VH with W32Y, M34F
VL: B1 VL
B5: TPP-26330 (antibody, V domains shown)
VH: B1 VH with S31F, W32Y
VL: B1 VL
B6: TPP-26331 (antibody, V domains shown)
VH: B1 VH with W32Y, M34G
VL: B1 VL
B7: TPP-26324 (antibody, V domains shown)
VH: B1 VH with W32Y, A61R
VL: B1 VL
B8: TPP-26328 (antibody, V domains shown)
VH: B1 VH with W32Y, G99T
VL: B1 VL
B9: TPP-26323 (antibody, V domains shown)
VH: B1 VH with W32Y
VL: B1 VL with D95G
B10: TPP-26326 (antibody, V domains shown)
VH: B1 VH with S31Y, W32Y
VL: B1 VL
B11: TPP-26332 (antibody, V domains shown)
VH: B1 VH with W32Y, G33K
VL: B1 VL
B12: TPP-26290 (antibody, V domains shown)
VH: B1 VH with W32Y
VL: B1 VL with Y33M
notes: constant regions not restated
B13: TPP-26293 (antibody, V domains shown)
VH: B1 VH with W32Y
VL: B1 VL with G32W
notes: constant regions not restated
B14: TPP-26298 (antibody, V domains shown)
VH: B1 VH with W32Y
VL: B1 VL with T23L
notes: constant regions not restated
B15: TPP-26292 (antibody, V domains shown)
VH: B1 VH with W32Y
VL: B1 VL with D95E
notes: constant regions not restated
B16: TPP-26333 (antibody, V domains shown)
VH: B1 VH with W32Y, M34F
VL: B1 VL
notes: constant regions not restated
B17: TPP-26303 (antibody, V domains shown)
VH: B1 VH with W32Y
VL: B1 VL with S58E
notes: constant regions not restated
B18: TPP-26300 (antibody, V domains shown)
VH: B1 VH with W32Y
VL: B1 VL with D95S
notes: constant regions not restated
B19: TPP-26297 (antibody, V domains shown)
VH: B1 VH with W32Y
VL: B1 VL with D94Q
notes: constant regions not restated
B20: TPP-26296 (antibody, V domains shown)
VH: B1 VH with W32Y
VL: B1 VL with D95N
notes: constant regions not restated
B21: TPP-26299 (antibody, V domains shown)
VH: B1 VH with W32Y
VL: B1 VL with N98Y
notes: constant regions not restated
B22: TPP-26294 (antibody, V domains shown)
VH: B1 VH with W32Y
VL: B1 VL with G32A
notes: constant regions not restated
B23: TPP-26295 (antibody, V domains shown)
VH: B1 VH with W32Y
VL: B1 VL with D95H
notes: constant regions not restated
B24: TPP-26302 (antibody, V domains shown)
VH: B1 VH with W32Y
VL: B1 VL with A91S
notes: constant regions not restated
B25: TPP-26291 (antibody, V domains shown)
VH: B1 VH with W32Y
VL: B1 VL with D95P
notes: constant regions not restated

These binders were tested against T1, human IL-11 (assay: cell-based or functional assay).

Binder	RGA Efficacy (%)	RGA IC50
B1	67.1%	2.6 nM
B2	15%	
B3	81.4%	1.7 nM
B4	64.7%	13 nM
B5	64.8%	3.4 nM
B6	54.9%	5.4 nM
B7	59%	1.5 nM
B8	18.6%	
B9	57.6%	2 nM
B10	72%	5.4 nM
B11	0.8%	

The binders below were run against T2, murine IL-11 (assay: cell-based or functional assay).

Binder	RGA Efficacy (%)	RGA IC50
B1	95.5%	1 nM
B2	38%	470 nM
B3	93%	1.3 nM
B4	94.1%	1.2 nM
B5	88.2%	1.3 nM
B6	90.9%	1.5 nM
B7	92.4%	1.3 nM
B8	70.8%	64 nM
B9	95.9%	0.92 nM
B10	83%	2 nM
B11	0.9%	

Each binder was assayed against T3, human IL-11 (assay: SPR, antibody captured, IL-11 as analyte).
Method: (§1) Antibodies were captured via anti-mouse Fc IgGs (“Mouse antibody capture kit, Order No. BR100383, Cytiva) covalently amine coupled to a Series S CM5 sensor chip (Cytiva). The amine coupling was carried out according to the manufacturer's instructions using 1-ethyl-3-(3-dimethylaminopropyl) carbodiimide hydrochloride (EDC), N-hydroxysuccinimide (NHS) and ethanolamine HCl, pH 8.5 (“Amine Coupling Kit” BR-1000-50, Cytiva.). Human IL-11 (Invigate, e.g., lot #C121021-19), and murine IL-11 (Invigate, e.g., lot #C210819-09) were used as analytes. […] Based on that experiment an IL-11 concentration range was chosen to optimally determine kinetics and affinity of anti-IL-11 antibodies in multicycle kinetics mode. The sensor surface was regenerated with glycine pH 1.7 after each antigen injection. Obtained sensorgrams were double referenced (subtraction of reference flow cell signal and buffer injection) and were fitted to a 1:1 Langmuir binding model to derive kinetic data using the Biacore T200 Evaluation software or the Biacore Insight software.
(§2) 42 hits from the IL-11 and […] screening analysis were selected, expressed by transient transfection of mammalian cells and purified as described in Example 15. Antibodies were then tested for human IL-11 and murine IL-11 binding by SPR as described in Example 16.

Binder	Kd
B12	8.6 nM
B13	11 nM
B14	13 nM
B15	13 nM
B16	11 nM
B17	13 nM
B18	9.2 nM
B19	13 nM
B20	14 nM
B21	11 nM
B22	11 nM
B23	9.8 nM
B24	13 nM
B25	9.7 nM

These binders were tested against T4, murine IL-11 (assay: SPR, antibody captured, IL-11 as analyte).
Method: as §1, §2

Binder	Kd
B12	0.54 nM
B13	0.26 nM
B14	0.73 nM
B15	0.48 nM
B17	0.65 nM
B18	0.45 nM
B19	0.89 nM
B20	0.71 nM
B21	0.63 nM
B22	0.82 nM
B23	0.65 nM
B24	0.7 nM
B25	0.94 nM

These binders were tested against T5, human IL2Ra (assay: IL2Ra direct binding ELISA, signal ratio to isotype control).
Method: IL2RA (Peprotech, Germany, #200-02RC) was coated at 1 or 0 μg/ml (buffer only control) in 30 μl coating buffer (Candor, #113500) per well on a 384 well microtiter plate (Maxisorb, Nunc, #460518) over night at 4-8° C. After two washes with 50 μl/well washing buffer (PBS+0.05% Tween, pH 7.4), the plates were incubated for two hours at room temperature with 50 μl/well SmartBlock (Candor, #113500). After blocking, the plates were washed three times with washing buffer. Then, a dilution series of the respective antibody (1E-7 [M] down to 2E-13 [M]) in PBS+0.05% Tween, 10% SmartBlock were added in 30 μl to the microtiter plate and incubated for 90 min at room temperature. After three additional washes, 30 μl anti mouse IgG HRP-conjugated antibody (Biotechne, HAF007), diluted 1:1000 in PBS+0.05% Tween (pH 7.4), were added per well and incubated for one hour. After three additional washes, a mixture of Amplex red (Invitrogen, #12222, 10 mM stock solution in DMSO) 1:1000 diluted in PBS and H2O2 (30%, Merck, #107209)) diluted 1:10000 in PBS were added as substrate with 30 μl per well and incubated for 20 min in the dark. Relative fluorescence was measured with a microtiter plate reader at 535/590 nm.
Next, the 42 antibodies were subjected to an IL2Ra binding ELISA as described in Example 20.

Binder	hIL2RA ELISA Binding: Ratio to Isotpye
B1	247 ratio
B2	11 ratio
B3	542 ratio
B4	436 ratio
B5	264 ratio
B6	107 ratio
B7	247 ratio
B8	27 ratio
B9	256 ratio
B10	516 ratio
B11	19 ratio
